Results from patent publication US10196447B2, “Anti-vascular endothelial growth factor receptor 2 (VEGFR2) antibody and methods of use thereof for detecting VEGFR2 and for inhibiting tumor growth, tumor angiogenesis and/or inducing cancer cell cytotoxicity” (Academia Sinica, priority 2015, dated 2019).

Key:
PC-3 xenografts = experiment: PC-3 human prostate cancer xenograft model; format: in vivo, NOD/SCID mice; settings: for tumor growth reduction: by day 38, antibody 20 mg/kg i.v. twice a week, docetaxel 5 mg/kg i.v. once a week
Method: Procedures involving animals and their care were conducted according to the guidelines of the Academia Sinica Institutional Animal Care and Utilization Committee in compliance with national and international laws and policies. Non-obese diabetic-severe combined immunodeficiency (NOD/SCID) mice were purchased from the National Laboratory Animal Center (Taiwan). The human prostate cancer xenograft tumor model was developed by subcutaneously injecting 2×10^6 PC-3 cells into the dorsal flank of a six-week old male mouse. Animals were monitored daily for general health, and body weights were measured twice weekly. Tumor size was measured with slide calipers and calculated as length×width^2×0.52. […] An antibody dose of 20 mg/kg was injected twice a week for four weeks. For combination therapy, docetaxel (ScinoPharm Taiwan) was also intravenously administered at a dose of 5 mg/kg once a week for three weeks. At the end of the experiment, tumor tissue and visceral organs were removed and fixed for histological analysis.
For tumor blood vessel studies, samples were fixed in OCT. Frozen blocks were cut into 50 μm sections, and frozen tumor tissue sections were fixed with 1% paraformaldehyde, permeabilized with 0.1% TRITON™-X 100, blocked with normal horse serum (Vector), and then incubated for 1 hour at room temperature (RT) with a 1:100 dilution of the primary antibody (rat anti-mouse CD31 (PECAM-1); BD Bioscience). Subsequently, the tissue sections were incubated with Alexa 549-conjugated goat anti-rat antibody (Invitrogen) at room temperature for 1 hour. Nuclei were stained with DAPI, and sections were then mounted with fluorescent mounting solution. Immunofluorescent images were acquired using a Zeiss Axiovert 200M microscope. Positive areas of CD31 endothelial cells were quantified by pixel area counting and normalized with DAPI staining using ImageJ software under low power magnification.
The frozen tumor tissue sections were fixed with 1% paratbrmaldehyde and permeabilized with 0.1% TRITON™-X 100, before being incubated with terminal deoxynucleotidyltransferase-mediated dUTP nick end labeling reaction mixture (Roche Diagnostics) at 37° C. for 1 hour. After washing three times with PBS, the slides were incubated with FITC-anti-DIG antibody (1:2000) and DAPI (1:500). Slides were mounted with mounting solution and visualized under a fluorescent microscope. Slides were independently examined by three individuals. Areas with TUNEL-positive cells were quantified by pixel area counting, and normalized to DAPI staining using ImageJ software.

murine VEGFR2 protein = murine VEGFR2 protein (Mus musculus, UniProt P35918, DEL223-227); experiment: Cross-reactivity with murine VEGFR2; format: binding
[1] = system: HL-60 leukemia xenografts; experiment: HL-60 leukemia xenograft model; format: in vivo, NSG mice
Method: For systemic leukemia engraftment studies, NOD/SCID/IL2Rγ−/− (NSG) mice were obtained from the Animal Center of the Institute of Cellular and Organismic Biology, Academia Sinica. Six-week old females were intravenously injected with 5×10^6 HL-60 cells through the tail vein. Animals were monitored daily for general health, and body weights were measured twice weekly. […] Mice were observed daily for signs of toxicity, and the survival times were recorded. At the end-point of treatment, the visceral organs of each mouse were removed and fixed for further histological examination.
Tumors and indicated organs were dissected from mice and fixed in 4% paraformaldehyde overnight. Fixation and processing of specimens were performed in accordance with standard procedures. The specimens were embedded in paraffin and cut into […] sections. Rehydrated paraffin-embedded tissue sections were stained with Mayer's hematoxylin solution (Wako) for 5 minutes and washed with water for 1-2 minutes. The slides were then stained with eosin solution (Wako) for 10 minutes. Tissues were visualized with Tissue Gnostics microscopes.

VEGFR2 signaling pathway = experiment: Western blot of VEGF-A-induced phosphorylation in HUVECs; format: cell-based, human; settings: for tyrosine phosphorylation of VEGFR2 by VEGF-A: scFv
From the text: Western blots were pertbrmed using standard protocols, as previously described. The primary antibodies were purchased from Cell Signaling Technology and used at a 1,000-fold dilution for protein detection; the antibodies used are as follows: anti-VEGFR2 (clone 55B11), anti-phospho-VEGFR2 (Tyr1175; clone 19A10), anti-FAK, anti-phospho-FAK (Tyr397; cloneD20B1), anti-p42/44 MAPK, anti-phospho-p42/44 MAPK (Thr202/Tyr204; cloneD13.14.4E), anti-Akt, and anti-phospho-Akt (Ser473).

VEGFR2 = molecular target: T1, VEGFR2 (Homo sapiens, UniProt P35968); experiment: Competitive VEGF binding assay (ELISA): VEGF-A binding to immobilized VEGFR2; settings: scFv; for IC50: 3 nM human VEGF-A, immobilized VEGFR2-Fc, read-out: half-maximal inhibitory concentration (IC50) of the interaction of VEGF-A with VEGFR2; for competitive ability against VEGF-A binding to VEGFR2: plate-based competition binding assay
T1 construct: purchased R&D Systems
Method: Various concentrations of anti-VEGFR2 scFvs were mixed with 3 nM human VEGF-A (Peprotech), and added to 96-well plates coated with 1 μg/ml of VEGFR2-Fc and pre-blocked in 1% BSA. After incubation for 1 hr at RT and washes with PBST, the bound VEGF molecules were detected using anti-VEGF mAb (GeneTex) and HRP-labeled goat anti-mouse IgG. The reaction was developed with a mixture of OPD and H2O2, and subsequently terminated with 3 N HCl. The absorbance was determined using a microplate reader at 490 nm.
To determine whether the anti-VEGFR2 scFvs can block VEGF-A binding to VEGFR2, we performed a plate-based competition binding assay in which increasing concentrations of scFvs competed with VEGF-A for binding to the immobilized VEGFR2.
We analyzed the affinity of both human antibodies to VEGFR2 using a BIACORE T100™. […] We performed solid-phase competitive assays to quantitatively evaluate the disruption of VEGF-A/VEGFR2 binding by individual antibodies.

VEGFR2-Fc = molecular target: T2, VEGFR2-Fc (Homo sapiens, UniProt P35968); experiment: Screening of anti-VEGFR2 phage clones by ELISA; format: binding; settings: 1×10^9 cfu phage titer
T2 construct: purchased R&D Systems
Method: (§1) The selected phages were further examined by ELISA screening. The 96-well plates were coated with 1 μg/ml of VEGFR2-Fc, Met-Fc (R&D), or BSA (Sigma) protein in 0.1 M sodium bicarbonate overnight at 4° C. After blocking with 1% BSA in PBS (w/v) for 2 hr at room temperature, 70-randomly selected phage clones were added to the plates at a 1:2 dilution in 1% BSA, and incubated for 1 hr at room temperature. Following washes with PBST, the plates were incubated with a 1:2000 dilution of horseradish peroxidase (HRP)-conjugated mouse anti-M13 phage antibody (GE) for 1 hr. After washing with PBST, the colorimetric reaction was developed with the peroxidase substrate ortho-phenylenediamine (OPD; Sigma) plus H2O2 for 15 min, and then terminated by the addition of 3 N HCl. The absorbance at 490 nm was determined using a microplate reader (SpectraMax, Molecular Devices). Plasmid DNA of positive clones were isolated and sequenced using the pCANTAB5 sequencing primer set.

[2] = system: VEGFR2 on the cell surface of HUVEC; experiment: Flow cytometry binding to HUVECs; format: cell-based, human; settings: FACS; 1×10^10 cfu
Method: About 1×10^4 HUVEC were incubated with the selected anti-VEGFR2 phage clones at 4° C. for 1 hour in FACS buffer (PBS containing 1% fetal bovine serum). After the cells were washed with FACS buffer, they were first incubated with mouse anti-M13 phage Ab for 1 hr at 4° C., and then with R-phycoerythrin-conjugated goat anti-mouse IgG (Jackson Immuno Research) for 30 min at 4° C. Flow cytometry was performed with a FACSCantoII (BD), and emission fluorescence intensity was measured with FACS Diva software (BD) to quantitatively compare binding affinities.

Met-Fc = experiment: Phage clone ELISA on control protein; format: binding
Method: as §1

[3] = 20 mg/kg i.v. twice weekly from day 3

T1 sequence (P35968 with tags, fused parts or gaps limits assumed): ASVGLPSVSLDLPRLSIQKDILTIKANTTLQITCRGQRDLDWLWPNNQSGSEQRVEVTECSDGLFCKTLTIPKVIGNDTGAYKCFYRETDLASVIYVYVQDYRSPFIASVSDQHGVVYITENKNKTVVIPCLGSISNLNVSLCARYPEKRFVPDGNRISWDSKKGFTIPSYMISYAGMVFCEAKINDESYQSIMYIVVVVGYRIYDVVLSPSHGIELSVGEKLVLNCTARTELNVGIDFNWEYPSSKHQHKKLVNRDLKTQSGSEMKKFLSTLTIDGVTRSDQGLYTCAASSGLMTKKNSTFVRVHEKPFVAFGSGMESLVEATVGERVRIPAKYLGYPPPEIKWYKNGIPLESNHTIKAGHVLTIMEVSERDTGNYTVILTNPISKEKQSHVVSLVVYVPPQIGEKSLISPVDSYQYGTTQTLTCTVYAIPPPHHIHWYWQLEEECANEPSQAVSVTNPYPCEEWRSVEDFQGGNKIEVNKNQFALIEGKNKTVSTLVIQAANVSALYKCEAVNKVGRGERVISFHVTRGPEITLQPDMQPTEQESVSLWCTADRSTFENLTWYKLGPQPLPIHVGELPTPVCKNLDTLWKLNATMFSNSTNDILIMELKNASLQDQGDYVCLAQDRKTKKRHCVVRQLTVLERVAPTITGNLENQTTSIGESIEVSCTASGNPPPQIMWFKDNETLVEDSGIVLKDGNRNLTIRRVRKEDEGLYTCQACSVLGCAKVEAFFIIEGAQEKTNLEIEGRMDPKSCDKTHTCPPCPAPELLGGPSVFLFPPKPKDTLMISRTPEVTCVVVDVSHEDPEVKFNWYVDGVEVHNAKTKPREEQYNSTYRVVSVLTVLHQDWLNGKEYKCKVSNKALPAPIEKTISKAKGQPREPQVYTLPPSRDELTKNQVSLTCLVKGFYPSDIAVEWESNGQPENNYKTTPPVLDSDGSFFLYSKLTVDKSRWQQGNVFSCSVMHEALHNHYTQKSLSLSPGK
Sequence of murine VEGFR2 protein (P35918 with tags, fused parts or gaps DEL223-227): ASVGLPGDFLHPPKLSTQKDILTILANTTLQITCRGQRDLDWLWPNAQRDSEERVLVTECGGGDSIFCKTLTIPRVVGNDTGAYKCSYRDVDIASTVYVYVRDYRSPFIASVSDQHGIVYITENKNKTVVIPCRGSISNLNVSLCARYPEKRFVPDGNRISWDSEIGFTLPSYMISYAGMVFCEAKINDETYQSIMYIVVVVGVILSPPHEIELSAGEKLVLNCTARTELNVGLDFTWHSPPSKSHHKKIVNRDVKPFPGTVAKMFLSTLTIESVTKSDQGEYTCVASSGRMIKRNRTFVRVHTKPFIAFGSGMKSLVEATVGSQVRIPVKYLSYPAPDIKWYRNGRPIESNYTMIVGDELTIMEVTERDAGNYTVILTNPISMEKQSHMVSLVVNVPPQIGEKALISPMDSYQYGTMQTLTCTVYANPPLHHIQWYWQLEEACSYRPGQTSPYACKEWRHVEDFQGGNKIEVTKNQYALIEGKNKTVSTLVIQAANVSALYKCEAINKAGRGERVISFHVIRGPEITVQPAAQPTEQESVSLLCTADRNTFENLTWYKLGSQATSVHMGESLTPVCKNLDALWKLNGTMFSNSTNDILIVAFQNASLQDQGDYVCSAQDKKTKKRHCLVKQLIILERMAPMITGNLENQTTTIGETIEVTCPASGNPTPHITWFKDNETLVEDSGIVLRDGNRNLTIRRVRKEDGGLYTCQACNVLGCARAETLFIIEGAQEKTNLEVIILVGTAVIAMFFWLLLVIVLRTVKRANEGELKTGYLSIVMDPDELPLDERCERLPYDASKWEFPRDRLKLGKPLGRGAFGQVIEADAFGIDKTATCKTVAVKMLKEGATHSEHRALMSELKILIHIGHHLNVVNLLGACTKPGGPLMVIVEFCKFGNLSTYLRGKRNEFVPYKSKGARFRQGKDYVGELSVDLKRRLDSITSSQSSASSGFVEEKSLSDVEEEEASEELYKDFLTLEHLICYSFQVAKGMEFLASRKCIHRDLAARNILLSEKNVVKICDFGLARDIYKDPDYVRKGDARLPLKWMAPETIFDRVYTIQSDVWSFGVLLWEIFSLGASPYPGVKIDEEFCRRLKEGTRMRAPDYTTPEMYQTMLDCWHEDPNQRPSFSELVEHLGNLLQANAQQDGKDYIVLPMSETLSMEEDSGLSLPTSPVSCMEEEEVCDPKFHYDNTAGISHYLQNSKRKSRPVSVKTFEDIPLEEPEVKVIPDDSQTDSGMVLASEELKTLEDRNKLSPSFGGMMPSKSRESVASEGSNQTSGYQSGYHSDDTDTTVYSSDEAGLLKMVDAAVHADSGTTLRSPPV
T2 sequence (P35968 with tags, fused parts or gaps limits assumed): as the sequence (P35968 with tags, fused parts or gaps limits assumed) above

In the case of `CC(=O)O[C@@]12CO[C@@H]1C[C@H](O)[C@@]1(C)C(=O)[C@H](O)C3=C(C)[C@@H](OC(=O)[C@H](O)[C@@H](NC(=O)OC(C)(C)C)c4ccccc4)C[C@@](O)([C@@H](OC(=O)c4ccccc4)[C@H]21)C3(C)C` [docetaxel, reference compound], the tumor growth reduction (PC-3 xenografts) is reported as 70% and the “loss of body weight” value (PC-3 xenografts; treatment period) is reported as “about 20%”.

For “IMC-1121B: FDA-approved anti-VEGFR2 human antibody (Ramucirumab), expressed by the applicant as human IgG1 [reference compound]”, the “cross-reaction / binding to murine VEGFR2” value (shortened to “cross-reaction / binding”) (murine VEGFR2 protein) was “not”, the median survival [1, 3] was 43 days and the survival time [1, 3] was 56 days. The “lymph nodes with leukemia infiltration” value ([1]; n=9 per group) was “five of nine”, the tumor growth reduction (PC-3 xenografts) was 45% and the “changes in body weight during the treatment period” value (PC-3 xenografts; compared to the NHIgG group or docetaxel alone) was “no significant changes”. For the same molecule, the “docetaxel-induced toxicity (body weight as surrogate)” value (PC-3 xenografts; in combination with docetaxel) was “do not enhance” and the FAK phosphorylation (VEGFR2 signaling pathway; 100 nM antibody) was “only marginally reduced”.

B1: R2S8: soluble anti-VEGFR2 scFv protein generated from phage clone R2PC8 (antibody, V domains shown)
VH: QVQLVQSGGGLVKPGGSLRLSCAASGFTFSSYSMSWVRQAPGKGLEWVSSISSSSSYIYYADSVKGRFTISRDNAKNSLYLQMNSLRAEDTAVYYCARSTDAFDIWGQGTMVTVSS
VL: DIVMTQSPSSLSASVGDRVTITCRASQRISNYLNWYQHKSGEDPKLLIYAASSLQSGVPSRFSGSGSGTDFTLTISSLQPEDFATYYCQQYDRYPPTFGQGTKLEIK
For B1, the “cross-reaction / binding” value (murine VEGFR2 protein) was “did not cross-react”, the IC50 (VEGFR2) was 7.03 nM and the “tyrosine phosphorylation of VEGFR2 by VEGF-A” value (VEGFR2 signaling pathway) was “inhibited”.

B2: R2S28: soluble anti-VEGFR2 scFv protein generated from phage clone R2PC28 (antibody, V domains shown)
VH: EVQLVESGGALVQPGGSLRLSCVGSEFTFSHYNLHWVRQAPGKGLEWLAVISDDGRNKYYGDSVKGRFTISRDNSKNTLYLQMNGLRAEDTAVYYCARVPTVWRGGVYDIWGQGTMVTVSS
VL: EIVLTQSPATLSLSPGERATLSCRASQSVGSYLAWYQQRPGQPPRLLIYDASNRATGVAARFSGSGSGTDFTLTIDSLEAEDAATYYCHQSSSLPRTFGQGTKLEIK
For B2, the “competitive ability against VEGF-A binding to VEGFR2” value (VEGFR2) was “comparatively weak competitive ability”.

B3: R2S29: soluble anti-VEGFR2 scFv protein generated from phage clone R2PC29 (antibody, V domains shown)
VH: QVQLQQSGAEMKKSGSSVKVSCKASGGNFISKGISWVRQAPGQGLEWMGGIIPLFGTGNYAQKFQGRVTITADESTTTVYLQLTSLTPEDTAMYFCATADVDYSDSLEAFDMWGQGTMVTVSS
VL: DIVMTQSPSSLSASVGDRVTITCRASQSINNYLNWYQQKPGKAPNLLIYGASSLQSGVPSRFRGSGSGTDFTLTISSLQPEDFATYYCQQSYSTPLFGQGTKLEIK
With B3 the “competitive ability against VEGF-A binding to VEGFR2” value (VEGFR2) was “comparatively weak competitive ability”.

B4: R2PC12: phage-displayed human scFv clone binding VEGFR2; VH CDR1-3 SEQ ID NO: 6-8, VL CDR1/CDR3 SEQ ID NO: 9, 10 (antibody, V domains shown)
VH: QVNLRESGGGLVKPGGSLRLSCAASGFTFGSYTMNWVRQAPGKGLEWVASITSGSSYIFYTDSVKGRFTISRDNSRSSLFLQMNSLRAEDTAIYYCARGSASAFDIWGQGTMVTVSS
VL: DIQMTQSPSSLSASVGDRVTITCKASDDIINYLNWYQQKPGEAPKLLIYDASILETGVPSRFSGSGSGTDFTFTISSLQPEDIATYYCQQYDILPLTFGGGTKLEIK
For B4, the “binding of phage clones to VEGFR2-Fc” value (VEGFR2-Fc) was “bind highly”, the “binding of phage clones to VEGFR2 on HUVEC cell surface” value [2] was “greatest reactivity” and the “binding of phage clones to c-Met-Fc control protein” value (Met-Fc) was “not”.

B5: R2S12: soluble anti-VEGFR2 scFv protein from phage clone R2PC12; VH SEQ ID NO: 76, VL SEQ ID NO: 77 (antibody, V domains shown)
VH: QVNLRESGGGLVKPGGSLRLSCAASGFTFGSYTMNWVRQAPGKGLEWVASITSGSSYIFYTDSVKGRFTISRDNSRSSLFLQMNSLRAEDTAIYYCARGSASAFDIWGQGTMVTVSS
VL: DIQMTQSPSSLSASVGDRVTITCKASDDIINYLNWYQQKPGEAPKLLIYDASILETGVPSRFSGSGSGTDFTFTISSLQPEDIATYYCQQYDILPLTFGGGTKLEIK
modifications: scFv linker; VH region of R2S12 or R2S12-AF; VL region of R2S12
In the case of B5, the “cross-reaction / binding” value (murine VEGFR2 protein) is reported as “did not cross-react”, the IC50 (VEGFR2) is reported as 3.26 nM and the “tyrosine phosphorylation of VEGFR2 by VEGF-A” value (VEGFR2 signaling pathway) is reported as “strongest inhibition activity”.
